Results: PMC9352680, “A comprehensive thermodynamic model for RNA binding by the Saccharomyces cerevisiae Pumilio protein PUF4”
Positions count from the first letter of the chain named. Names may count otherwise.

T1: PUF4 RNA-binding domain (Saccharomyces cerevisiae, UniProt P25339 537-888)
T1 sequence: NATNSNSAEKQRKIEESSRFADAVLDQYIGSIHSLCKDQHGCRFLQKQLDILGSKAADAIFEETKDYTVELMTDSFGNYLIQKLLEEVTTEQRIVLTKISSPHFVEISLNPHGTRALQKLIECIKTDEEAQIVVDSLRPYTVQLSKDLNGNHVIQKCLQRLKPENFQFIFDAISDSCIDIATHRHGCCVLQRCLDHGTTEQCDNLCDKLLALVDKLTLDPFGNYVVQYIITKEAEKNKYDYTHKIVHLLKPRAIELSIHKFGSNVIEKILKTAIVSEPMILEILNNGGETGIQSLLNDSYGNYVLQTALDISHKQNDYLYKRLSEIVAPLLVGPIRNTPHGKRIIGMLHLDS

B1: Id_ii_S4_P3E.3_K3.2_C3.2_[C-2G]_[T-1C]_H3.2_A3.1_F3.1_T3.2_[A10T] (ssRNA)
RNA: UUUGACAACUGAUCGUUCUUUCUGCUAUAUAUAUUUUCUUUCUCGAUCAGUUGUCUUU
B2: Id_ii_S4_P3E.3_K3.2_C3.2_[T-1C]_H3.2_A3.1_F3.1_T3.2_[T9G]_[A10T] (ssRNA)
RNA: B1 RNA with G24C, U34G
B3: Id_ii_S4_P3E.3_K3.2_C3.2_[C-2A]_H3.2_A3.1_F3.1_T3.2_[T9A] (ssRNA)
RNA: B1 RNA with G24A, C25U, U34A, U35A
B4: Id_ii_S4_P3E.3_K3.2_C3.2_[C-2A]_H3.2_A3.1_F3.1_T3.2_[A10T] (ssRNA)
RNA: B1 RNA with G24A, C25U
B5: Id_ii_S4_P3E.3_K3.2_C3.2_[C-2A]_[T-1G]_H3.2_A3.1_F3.1_T3.2_[T9A]_[A10G] (ssRNA)
RNA: B1 RNA with G24A, C25G, U34A, U35G
B6: Id_ii_S4_P3E.3_K3.2_C3.2_[C-2T]_[T-1C]_H3.2_A3.1_F3.1_T3.2_[A10T] (ssRNA)
RNA: B1 RNA with G24U
B7: Id_ii_S4_P3E.3_K3.2_C3.2_[C-2A]_[T-1C]_H3.2_A3.1_F3.1_T3.2_[T9C]_[A10T] (ssRNA)
RNA: B1 RNA with G24A, U34C
B8: Id_ii_S4_P3E.3_K3.2_C3.2_[C-2T]_[T-1G]_H3.2_A3.1_F3.1_T3.2_[T9A]_[A10T] (ssRNA)
RNA: B1 RNA with G24U, C25G, U34A
B9: Id_ii_S4_P3E.3_K3.2_C3.2_[C-2T]_[T-1A]_H3.2_A3.1_F3.1_T3.2_[A10C] (ssRNA)
RNA: B1 RNA with G24U, C25A, U35C
B10: Id_ii_S4_P3E.3_K3.2_C3.2_[C-2A]_H3.2_A3.1_F3.1_T3.2_[T9C]_[A10T] (ssRNA)
RNA: B1 RNA with G24A, C25U, U34C
B11: Id_ii_S4_P3E.3_K3.2_C3.2_[T-1G]_H3.2_A3.1_F3.1_T3.2_[T9G]_[A10C] (ssRNA)
RNA: B1 RNA with G24C, C25G, U34G, U35C
B12: Id_ii_S4_P3E.3_K3.2_C3.2_[C-2T]_[T-1C]_H3.2_A3.1_F3.1_T3.2_[A10C] (ssRNA)
RNA: B1 RNA with G24U, U35C
B13: Id_ii_S4_P3E.3_K3.2_C3.2_[C-2A]_[T-1A]_H3.2_A3.1_F3.1_T3.2_[T9A] (ssRNA)
RNA: B1 RNA with G24A, C25A, U34A, U35A
B14: Id_ii_S4_P3E.3_K3.2_C3.2_[C-2T]_[T-1A]_H3.2_A3.1_F3.1_T3.2_[T9A]_[A10C] (ssRNA)
RNA: B1 RNA with G24U, C25A, U34A, U35C
B15: Id_ii_S4_P3E.3_K3.2_C3.2_[T-1G]_H3.2_A3.1_F3.1_T3.2_[T9A] (ssRNA)
RNA: B1 RNA with G24C, C25G, U34A, U35A
B16: Id_ii_S4_P3E.3_K3.2_C3.2_[C-2T]_H3.2_A3.1_F3.1_T3.2_[T9C] (ssRNA)
RNA: B1 RNA with G24U, C25U, U34C, U35A
B17: Id_ii_S4_P3E.3_K3.2_C3.2_[C-2T]_[T-1C]_H3.2_A3.1_F3.1_T3.2_[T9C]_[A10G] (ssRNA)
RNA: B1 RNA with G24U, U34C, U35G
B18: Id_ii_S4_P3E.3_K3.2_C3.2_[C-2A]_H3.2_A3.1_F3.1_T3.2_[A10G] (ssRNA)
RNA: B1 RNA with G24A, C25U, U35G
B19: Id_ii_S4_P3E.3_K3.2_C3.2_[C-2T]_H3.2_A3.1_F3.1_T3.2 (ssRNA)
RNA: B1 RNA with G24U, C25U, U35A
B20: Id_ii_S4_P3E.3_K3.2_C3.2_[C-2G]_H3.2_A3.1_F3.1_T3.2 (ssRNA)
RNA: B1 RNA with C25U, U35A
B21: Id_ii_S4_P3E.3_K3.2_C3.2_[C-2A]_[T-1A]_H3.2_A3.1_F3.1_T3.2_[T9A]_[A10C] (ssRNA)
RNA: B1 RNA with G24A, C25A, U34A, U35C
B22: Id_ii_S4_P3E.3_K3.2_C3.2_[C-2T]_[T-1C]_H3.2_A3.1_F3.1_T3.2_[T9C] (ssRNA)
RNA: B1 RNA with G24U, U34C, U35A
B23: Id_ii_S4_P3E.3_K3.2_C3.2_[C-2A]_H3.2_A3.1_F3.1_T3.2 (ssRNA)
RNA: B1 RNA with G24A, C25U, U35A
B24: Id_ii_S4_P3E.3_K3.2_C3.2_[C-2A]_H3.2_A3.1_F3.1_T3.2_[A10C] (ssRNA)
RNA: B1 RNA with G24A, C25U, U35C
B25: Id_ii_S4_P3E.3_K3.2_C3.2_[C-2A]_[T-1A]_H3.2_A3.1_F3.1_T3.2_[T9A]_[A10T] (ssRNA)
RNA: B1 RNA with G24A, C25A, U34A
B26: Id_ii_S4_P3E.3_K3.2_C3.2_[C-2T]_H3.2_A3.1_F3.1_T3.2_[A10T] (ssRNA)
RNA: B1 RNA with G24U, C25U
B27: Id_ii_S4_P3E.3_K3.2_C3.2_[C-2T]_[T-1G]_H3.2_A3.1_F3.1_T3.2_[T9G]_[A10C] (ssRNA)
RNA: B1 RNA with G24U, C25G, U34G, U35C
B28: Id_ii_S4_P3E.3_K3.2_C3.2_[C-2A]_[T-1C]_H3.2_A3.1_F3.1_T3.2_[T9C] (ssRNA)
RNA: B1 RNA with G24A, U34C, U35A
B29: Id_ii_S4_P3E.3_K3.2_C3.2_[C-2A]_[T-1A]_H3.2_A3.1_F3.1_T3.2_[T9C]_[A10T] (ssRNA)
RNA: B1 RNA with G24A, C25A, U34C
B30: Id_ii_S4_P3E.3_K3.2_C3.2_[C-2G]_H3.2_A3.1_F3.1_T3.2_[T9C]_[A10T] (ssRNA)
RNA: B1 RNA with C25U, U34C
B31: Id_ii_S4_P3E.3_K3.2_C3.2_[C-2A]_[T-1A]_H3.2_A3.1_F3.1_T3.2_[T9C]_[A10G] (ssRNA)
RNA: B1 RNA with G24A, C25A, U34C, U35G
B32: Id_ii_S4_P3E.3_K3.2_C3.2_[C-2T]_[T-1C]_H3.2_A3.1_F3.1_T3.2_[T9A]_[A10T] (ssRNA)
RNA: B1 RNA with G24U, U34A
B33: Id_ii_S4_P3E.3_K3.2_C3.2_[C-2A]_[T-1A]_H3.2_A3.1_F3.1_T3.2_[A10C] (ssRNA)
RNA: B1 RNA with G24A, C25A, U35C
B34: Id_ii_S4_P3E.3_K3.2_C3.2_[C-2T]_[T-1C]_H3.2_A3.1_F3.1_T3.2_[T9A] (ssRNA)
RNA: B1 RNA with G24U, U34A, U35A
B35: Id_ii_S4_P3E.3_K3.2_C3.2_[C-2T]_[T-1A]_H3.2_A3.1_F3.1_T3.2_[T9C] (ssRNA)
RNA: B1 RNA with G24U, C25A, U34C, U35A
B36: Id_ii_S4_P3E.3_K3.2_C3.2_[C-2G]_H3.2_A3.1_F3.1_T3.2_[T9A]_[A10G] (ssRNA)
RNA: B1 RNA with C25U, U34A, U35G
B37: Id_ii_S4_P3E.3_K3.2_C3.2_[C-2G]_H3.2_A3.1_F3.1_T3.2_[A10T] (ssRNA)
RNA: B1 RNA with C25U
B38: Id_ii_S4_P3E.3_K3.2_C3.2_[C-2A]_[T-1C]_H3.2_A3.1_F3.1_T3.2_[T9C]_[A10C] (ssRNA)
RNA: B1 RNA with G24A, U34C, U35C
B39: Id_ii_S4_P3E.3_K3.2_C3.2_[C-2T]_H3.2_A3.1_F3.1_T3.2_[T9G]_[A10T] (ssRNA)
RNA: B1 RNA with G24U, C25U, U34G
B40: Id_ii_S4_P3E.3_K3.2_C3.2_[T-1G]_H3.2_A3.1_F3.1_T3.2_[T9C]_[A10C] (ssRNA)
RNA: B1 RNA with G24C, C25G, U34C, U35C
B41: Id_ii_S4_P3E.3_K3.2_C3.2_[C-2A]_[T-1C]_H3.2_A3.1_F3.1_T3.2_[T9C]_[A10G] (ssRNA)
RNA: B1 RNA with G24A, U34C, U35G

Target: T1, PUF4 RNA-binding domain
Assay: Mg; RNA-MaP; 20 mM Na-HEPES pH 7.4, 30 mM KOAc, 0.75 mM MgCl2, 0.1% Tween-20, 5% glycerol, 0.1 mg/mL BSA, 2 mM DTT; 25 C; 0.0125-409.6 nM protein
Details: tags: N-His6-TEV cleaved; C-SNAP kept, Cy3B-labelled; label: tethered on chip by stalled RNA polymerase

| Binder | Kd |
| --- | --- |
| UCUCUUAGUAUUCUUAUCUCUU (ssRNA) [Ib_S1_P5E.1_K5.1_C5.1_H5.1_[T1A]_A5.1_[A7C]_F5.1_T5.1] | 1460 nM |
| UCUCUUCGUAUUGUUAUCUCUU (ssRNA) [Ib_S1_P5E.1_K5.1_C5.1_H5.1_[T1C]_A5.1_[A7G]_F5.1_T5.1] | > 2300 nM |
| UCUCUUAGUAUUUUUAUCUCUU (ssRNA) [Ib_S1_P5E.1_K5.1_C5.1_H5.1_[T1A]_A5.1_[A7T]_F5.1_T5.1] | 1470 nM |
| B1 | 149 nM |
| B2 | 392 nM |
| B3 | 831 nM |
| B4 | 203 nM |
| B5 | 1140 nM |
| B6 | 38 nM |
| B7 | 132 nM |
| B8 | 1.81 nM |
| B9 | 108 nM |
| B10 | 214 nM |
| B11 | 194 nM |
| B12 | 120 nM |
| B13 | 723 nM |
| B14 | 326 nM |
| B15 | 404 nM |
| B16 | 220 nM |
| B17 | 467 nM |
| B18 | 978 nM |
| B19 | 117 nM |
| B20 | 43.8 nM |

| Binder | Kd |
| --- | --- |
| B21 | 445 nM |
| B22 | 252 nM |
| B23 | 596 nM |
| B24 | 134 nM |
| B25 | 584 nM |
| B26 | 70 nM |
| B27 | 2.89 nM |
| B28 | 261 nM |
| B29 | 167 nM |
| B30 | 146 nM |
| B31 | 745 nM |
| B32 | 151 nM |
| B33 | 296 nM |
| B34 | 472 nM |
| B35 | 94.6 nM |
| B36 | 304 nM |
| B37 | 16.8 nM |
| B38 | 184 nM |
| B39 | 575 nM |
| B40 | 978 nM |
| B41 | 2050 nM |
| UCUCUUAGUAUAAUUAUCUCUU (ssRNA) [Ib_S1_P5E.1_K5.1_C5.1_H5.1_[T1A]_A5.1_[T6A]_F5.1_T5.1] | 1030 nM |
